Test results as given in publication PMC12000511, “Molecular basis for the assembly of the Vps5-Vps17 SNX-BAR proteins with Retromer” (Nature Communications, 2025).
Where no end group is shown, it is not given here.

Assays:
hRetromer = biological target: T1, hRetromer (Homo sapiens, UniProt Q96QK1+Q9UBQ0); experiment: GST pull-down with hRetromer; type: binding; details: 1 nmol GST-tagged protein, 2 nmol hRetromer, overnight 4 °C, SDS-PAGE/blot
T1 construct: GST (N); made in house; host or cells: E. coli BL21(DE3) (general statement for bacterial constructs)
Experimental: GST pull-down assay of scVps5 and hRetromer was performed similar to the one described above with some modifications. The purified hRetromer at 2 nmol was mixed with 1 nmol GST-tagged hFam21R19–R21, scVps5_70–128 LF native, scVps5_70–128 LF mutant or GST alone separately overnight at 4 °C before added to fresh glutathione Sepharose pre-equilibrated with buffer as mentioned above. In all cases, beads were washed five times with the equilibration buffer and bounds proteins were analysed by SDS-PAGE gels.

[1] = biological target: ctVps29 (Chaetomium thermophilum); experiment: ITC; Microcal PEAQ ITC, 25 °C, 50 mM Tris-HCl pH 7.5, 200 mM NaCl, 2 mM β-ME; Vps5/Vps17/SNX1 construct or peptide (200-400 µM) titrated into 10-15 µM Retromer or Vps29; single-site model, N set to 1.0 if close to 1
[2] = biological target: ctRetromer (Chaetomium thermophilum Retromer trimer of ctVps35, ctVps26 and ctVps29) (Chaetomium thermophilum); experiment: as above
[3] = biological target: ctVps5 (full length, homodimer) (Chaetomium thermophilum); experiment: mass photometry; Refeyn OneMP, 50-100 nM protein, 50 mM Tris-HCl pH 7.5, 200 mM NaCl, 2 mM β-ME; ctRetromer and ctVps5 combined in a 1:1 ratio
[4] = biological target: ctRetromer (Chaetomium thermophilum Retromer trimer of ctVps35, ctVps26 and ctVps29) (Chaetomium thermophilum); experiment: ITC; as a1, with 100 µM of the cyclic peptide RT-D3 in the cell: 200 µM ctVps5 or GST-ctVps5(51–100) titrated into 10 µM ctRetromer or ctVps29
[5] = biological target: ctRetromer (Chaetomium thermophilum Retromer trimer of ctVps35, ctVps26 and ctVps29) (Chaetomium thermophilum); experiment: ITC; as a1, with 100 µM of the control cyclic peptide RT-D1 L7E in the cell: 200 µM ctVps5 titrated into 10 µM ctRetromer
[6] = biological target: ctVps5 (full length, homodimer) (Chaetomium thermophilum); experiment: mass photometry; Refeyn OneMP, low ionic strength: 50 mM Tris-HCl pH 7.5, 40 mM NaCl, 2 mM β-ME
[7] = test system: scRetromer and scSNX-BAR on supported membrane tubes; experiment: Supported membrane tube (SMT) assay; type: biochemical, Saccharomyces cerevisiae
Experimental: Supported membrane tubes were generated as described[46]. Briefly, glass coverslips were first washed with 3 M NaOH for 5 min and rinsed with water before a 60 min treatment with piranha solution (95% H2SO4/30% H2O2 3:2 v/v). Coverslips were rinsed with water and dried on a heat block at 90 °C. Coverslips were then silanized with 3-glycidyloxypropyltrimethoxysilane (Catalogue no. 440167, Sigma) for 5 h under vacuum, rinsed with acetone and dried. Polyethylene glycol coating was done by placing the coverslips in a beaker containing PEG400 (Sigma) at 90 °C for 60 h. Coverslips were washed with distilled water and stored for up to 2 months at room temperature in a closed container.
To generate supported membrane tubes, lipids were mixed from 10 mg/mL stocks in a glass vial and diluted to a final concentration of 1 mg/mL in chloroform. The same lipid mix was used throughout this study (5% PI(3)P, 15% DOPS, 0.1% fluorescent lipid tracer (Cy5.5 PE or Texas red DHPE), 79.5% egg-PC). Lipids were then spotted (typically 1 µL, corresponding to about 1 nmol) on the coverslips and dried for 30 min under vacuum. The coverslip was mounted on an IBIDI 6-channel µ-slide (µ-Slide VI 0.4. IBIDI, catalog no: 80606). Lipids were hydrated for 15 min with buffer (PBS) and SMTs were generated by injecting PBS into the chamber using an Aladdin Single-Syringe Pump (World Precision Instruments, model n°. AL-1000) at a flow rate of 1,5 mL/min for 5 min. SMTs were left to stabilize without flow for 5 min before the start of the experiment. Protein stocks (typically 1–2 µM) were first diluted in PBS and then injected in the chamber at a flow rate of 80 µL per minute. Cyclic peptides were added to the proteins from a 30 mM stock in DMSO to a final concentration of 300 µM. the protein/peptide mix was incubated for 1 min at room temp (23 °C) before being added to the SMTubes.

Vps10 = experiment: Vps10-mNeonGreen localisation/recycling in vps5Δ yeast (Pearson colocalization with vacuole); type: cell-based, Saccharomyces cerevisiae; details: vps5Δ cells complemented with Vps5 variant on plasmid; confocal microscopy
Excerpt: Fig. 7 The interaction of Retromer with the Vps5 N-terminal domain is required for Vps10 recycling. A AlphaFold2 predicted structure of the scVps35–scVps29–scVps5 complex highlighting residues targeted for mutagenesis. B Yeast cells (SEY6210) carrying a Vps5 deletion, and expressing a copy of Vam10 (the VAM10 gene is embedded in VPS5 and deleted with it) and Vps10-mNeonGreen were complemented with centromeric plasmids expressing variants of Vps5. These cells were logarithmically grown in SD-URA medium, stained with FM4−64 and analysed by confocal microscopy. Single slices of the images are shown. Scale bar: 1 μm. Arrowheads indicate regions of Vps10 vacuolar localisation, and open arrowheads indicate Vps10 localised to pre-vacuolar comparmtnets. C Graph representation showing the Pearson Colocalizastion Coefficient between the vacuolar and Vps10 signals of Vps5 deleted yeast cells shown in B quantified using JACoP (Just Another Co-localization Plugin) implemented in ImageJ. Error bars are the standard deviations calculated from ≥ 70 measurements from 2 experiments.
The Saccharomyces cerevisiae strains are derived from SEY6210 (Supplementary Table 3). Vps5 and Pep4 deletions, Vps5 N-terminal point mutations and endogenous tagging of Vps10 was conducted based on the CRISPR-Cas9 system. The vector co-expressing single guide RNA and Cas9 enzyme was co-transformed into yeast cells with double-stranded oligonucleotides as the templates for homologous recombination (Supplementary Table 4). For Vps5 deletion, the template contained 40-bp homology upstream and downstream of its coding sequence. Vps10^mNeonGreen was created by a template comprising its C-terminal region with mutated PAM sequence and fused mNeonGreen tag followed by 40-bp homology region after the stop codon. Vam10 was cloned into pRS305 vector using Not1/Sma1 restriction sites to generate an integrative plasmid that was linearized, transformed and integrated ectopically into the auxotrophic selectable marker LEU2 gene locus. […]

[8] = test system: yeast vps5Δ cells (SEY6210); experiment: Vacuole fragmentation (FM4−64) in vps5Δ yeast; type: cell-based, Saccharomyces cerevisiae; details: vps5Δ cells complemented with Vps5 variant on plasmid
Experimental: The Saccharomyces cerevisiae strains are derived from SEY6210 (Supplementary Table 3). Vps5 and Pep4 deletions, Vps5 N-terminal point mutations and endogenous tagging of Vps10 was conducted based on the CRISPR-Cas9 system. The vector co-expressing single guide RNA and Cas9 enzyme was co-transformed into yeast cells with double-stranded oligonucleotides as the templates for homologous recombination (Supplementary Table 4). For Vps5 deletion, the template contained 40-bp homology upstream and downstream of its coding sequence. Vps10^mNeonGreen was created by a template comprising its C-terminal region with mutated PAM sequence and fused mNeonGreen tag followed by 40-bp homology region after the stop codon. Vam10 was cloned into pRS305 vector using Not1/Sma1 restriction sites to generate an integrative plasmid that was linearized, transformed and integrated ectopically into the auxotrophic selectable marker LEU2 gene locus.
The VPS5 gene with its native promoter, C-terminally fused HA-tag and ADH1 terminator was cloned into pRS314 centromeric plasmid. A point mutation was introduced in the start codon of VAM10 (M-to-I) by site-directed mutagenesis, because VAM10 overlaps with VPS5[71]. […] For the N-terminal deletion mutant of Vps5 (Δ1-280), residues 838–2025 of VPS5 were amplified and subcloned into the pRS314-VPS5-HA plasmid described above using Nco1/Sma1 restriction sites. The plasmid bearing the PL motif mutation (L196R) was generated using site-directed mutagenesis in the pRS314-VPS5-HA plasmid. To abolish all three putative binding sites to Retromer, a synthetic gene fragment of VPS5 (ordered from GenScript) containing the following mutations—start codon of VAM10 sequence(M-to-I), L196R, L121G, F122G and F161E—was subcloned into the pRS314-VPS5-HA plasmid using Nco1/Stu1 restriction sites.
Vacuoles were stained with FM4−64. Cells were grown in SD^-URA medium to an OD600 between 0.6 and 1.0. The culture was diluted to an OD600 of 0.4, and FM4−64 was added to a final concentration of 10 µM from a 10 mM stock in DMSO. […]

GST-tagged scVps5_70–128: GST-tagged S. cerevisiae Vps5 residues 70–128 containing the LF motif (GLSVAGNPQLEEHDNSKADDLINSLAPEQDPIADLKNSTTQFIATRESGGALFTGNANS; not fully specified (N-terminus); also: GST fusion, end not given here)
binding to hRetromer in GST pull-down (hRetromer): only binds weakly to VPS35
binding to hRetromer in GST pull-down (hRetromer; listed as GST- scVps570-128): binds weakly to hRetromer

GST-ctVps5_(51–100) (domain or fragment)
Kd [1]: 1600 nM
dH [1]: -2.16 kcal/mol
Kd [2]: 660 nM
dH [2]: -4.1 kcal/mol

ctVps5 (full length, homodimer) (natural protein)
stoichiometry N [3]: 2
Kd with 100 µM RT-D3 (competitor) present [4]: 9410 nM
dH [4]: -10.5 kcal/mol
Kd with 100 µM RT-D1 L7E (control peptide) present [5]: 750 nM
dH [5]: -7.53 kcal/mol
Kd [2]: 720 nM
dH [2]: -8.5 kcal/mol

ctRetromer (Chaetomium thermophilum Retromer trimer of ctVps35, ctVps26 and ctVps29) (complex)
stoichiometry N (ctRetromer per ctVps5 dimer) [3]: 1
stoichiometry N (ctRetromer per ctVps5 dimer) [6]: 2

B1: quadruple mutant Vps5 (L121G/F122G/F161E/L196R): scVps5 mutant altering PL, [K/R]Φ and LFa sites (protein, UniProt Q92331 1-675, looked up, variant L121G F122G F161E L196R)
Vacuolar protein …: MDYEDNLEAPVWDELNHEGDKTQSLVSNSIESIGQISTNEERKDNELLETTASFADKIDLDSAPEWKDPGLSVAGNPQLEEHDNSKADDLINSLAPEQDPIADLKNSTTQFIATRESGGAGGTGNANSPLVFDDTIYDANTSPNTSKSISGRRSGKPRILEDSARAQRNSKRNHSLKAKRTTASDDTIKTPFTDPRKKAEKENEFVEEPLDDRNERRENNEGKFTASVEKNILEQVDRPLYNLPQTGANISSPAEVEENSEKFGKTKIGSKVPPTEKAVAFKVEVKDPVKVGELTSIHVEYTVISESSLLELKYAQVSRRYRDFRWLYRQLQNNHWGKVIPPPPEKQSVGSFKENFIENRRFQMESMLKKICQDPVLQKDKDFLLFLTSDDFSSESKKRAFLTGSGAINDSNDLSEVRISEIQLLGAEDAAEVLKNGGIDAESHKGFMSISFSSLPKYNEADEFFIEKKQKIDELEDNLKKLSKSLEMVDTSRNTLAASTEEFSSMVETLASLNVSEPNSELLNNFADVHKSIKSSLERSSLQETLTMGVMLDDYIRSLASVKAIFNQRSKLGYFLVVIENDMNKKHSQLGKLGQNIHSEKFREMRKEFQTLERRYNLTKKQWQAVGDKIKDEFQGFSTDKIREFRNGMEISLEAAIESQKECIELWETFYQTNL
Vps5–Vps17 heterodimer formation of mutant ([7]; quadruple mutant Vps5 with scVps17): do not impair heterodimer formation
coat formation / recruitment on SMTs ([7]; scSNX-BAR and scRetromer on SMTs containing 5% PtdIns(3)P): showed a defect of coat formation
Vps10 recycling/localisation (Vps10): severe Vps10 recycling sorting defect
vacuole fragmentation [8]: strong vacuole fragmentation

B2: wildtype Vps5: S. cerevisiae wildtype Vps5 re-introduced into knockout cells (protein, UniProt Q92331 1-675, looked up)
Vacuolar protein …: MDYEDNLEAPVWDELNHEGDKTQSLVSNSIESIGQISTNEERKDNELLETTASFADKIDLDSAPEWKDPGLSVAGNPQLEEHDNSKADDLINSLAPEQDPIADLKNSTTQFIATRESGGALFTGNANSPLVFDDTIYDANTSPNTSKSISGRRSGKPRILFDSARAQRNSKRNHSLKAKRTTASDDTIKTPFTDPLKKAEKENEFVEEPLDDRNERRENNEGKFTASVEKNILEQVDRPLYNLPQTGANISSPAEVEENSEKFGKTKIGSKVPPTEKAVAFKVEVKDPVKVGELTSIHVEYTVISESSLLELKYAQVSRRYRDFRWLYRQLQNNHWGKVIPPPPEKQSVGSFKENFIENRRFQMESMLKKICQDPVLQKDKDFLLFLTSDDFSSESKKRAFLTGSGAINDSNDLSEVRISEIQLLGAEDAAEVLKNGGIDAESHKGFMSISFSSLPKYNEADEFFIEKKQKIDELEDNLKKLSKSLEMVDTSRNTLAASTEEFSSMVETLASLNVSEPNSELLNNFADVHKSIKSSLERSSLQETLTMGVMLDDYIRSLASVKAIFNQRSKLGYFLVVIENDMNKKHSQLGKLGQNIHSEKFREMRKEFQTLERRYNLTKKQWQAVGDKIKDEFQGFSTDKIREFRNGMEISLEAAIESQKECIELWETFYQTNL
Vps10 recycling/localisation (Vps10): localization of Vps10-mNeonGreen on punctate structures
vacuole fragmentation [8]: clear recovery of large vacuoles

B3: Vps5 (L196R): single amino acid substitution in the core PL motif of scVps5 (protein, UniProt Q92331 1-675, looked up, variant L196R)
Vacuolar protein …: MDYEDNLEAPVWDELNHEGDKTQSLVSNSIESIGQISTNEERKDNELLETTASFADKIDLDSAPEWKDPGLSVAGNPQLEEHDNSKADDLINSLAPEQDPIADLKNSTTQFIATRESGGALFTGNANSPLVFDDTIYDANTSPNTSKSISGRRSGKPRILFDSARAQRNSKRNHSLKAKRTTASDDTIKTPFTDPRKKAEKENEFVEEPLDDRNERRENNEGKFTASVEKNILEQVDRPLYNLPQTGANISSPAEVEENSEKFGKTKIGSKVPPTEKAVAFKVEVKDPVKVGELTSIHVEYTVISESSLLELKYAQVSRRYRDFRWLYRQLQNNHWGKVIPPPPEKQSVGSFKENFIENRRFQMESMLKKICQDPVLQKDKDFLLFLTSDDFSSESKKRAFLTGSGAINDSNDLSEVRISEIQLLGAEDAAEVLKNGGIDAESHKGFMSISFSSLPKYNEADEFFIEKKQKIDELEDNLKKLSKSLEMVDTSRNTLAASTEEFSSMVETLASLNVSEPNSELLNNFADVHKSIKSSLERSSLQETLTMGVMLDDYIRSLASVKAIFNQRSKLGYFLVVIENDMNKKHSQLGKLGQNIHSEKFREMRKEFQTLERRYNLTKKQWQAVGDKIKDEFQGFSTDKIREFRNGMEISLEAAIESQKECIELWETFYQTNL
Vps10 recycling/localisation (Vps10): partial defect in Vps10 recycling
vacuole fragmentation [8]: partial rescue of vacuole fragmentation
